Results published in PMC3119452 (Structure (London, England : 1993), 2010).
Where “and” joins values, the source holds several entries; their conditions need not be identical. Equal values may be shown once. Read-outs that look alike come from different tables or passages of the source. Each block holds one molecule with its values, some of them ahead of it.

Experiments:
[1] = molecular target: full-length HYL1 (Arabidopsis HYPONASTIC LEAVES1) (Arabidopsis) (UniProt O04492); experiment: SEC
[2] = molecular target: full-length HYL1 (Arabidopsis HYPONASTIC LEAVES1) (Arabidopsis) (UniProt O04492); experiment: SEC; remark: listed apart in the source
GST-HYL1 fusion protein = molecular target: T1, GST-HYL1 fusion protein (Arabidopsis, UniProt O04492 1-419); experiment: pull-down
T1 sequence (looked up): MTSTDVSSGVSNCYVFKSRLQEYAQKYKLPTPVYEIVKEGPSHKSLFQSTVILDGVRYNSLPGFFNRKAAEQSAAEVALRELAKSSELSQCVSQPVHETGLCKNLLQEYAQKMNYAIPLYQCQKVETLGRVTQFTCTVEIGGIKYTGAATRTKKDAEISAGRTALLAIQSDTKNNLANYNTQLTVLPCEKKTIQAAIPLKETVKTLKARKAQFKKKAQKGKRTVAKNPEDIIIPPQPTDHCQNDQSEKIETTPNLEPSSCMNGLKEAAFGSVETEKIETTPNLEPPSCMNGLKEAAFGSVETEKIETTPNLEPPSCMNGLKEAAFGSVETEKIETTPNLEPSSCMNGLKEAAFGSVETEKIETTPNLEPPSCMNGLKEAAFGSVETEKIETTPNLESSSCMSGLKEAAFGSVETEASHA

crystal structure = molecular target: the molecule itself; experiment: crystal structure

binding result (GST-HYL1 fusion protein): binds
B1: HYL1 dsRBD1+2 (HR1+2; residues 15-172) (domain or fragment, Arabidopsis, UniProt O04492 15-172, looked up)
chain: VFKSRLQEYAQKYKLPTPVYEIVKEGPSHKSLFQSTVILDGVRYNSLPGFFNRKAAEQSAAEVALRELAKSSELSQCVSQPVHETGLCKNLLQEYAQKMNYAIPLYQCQKVETLGRVTQFTCTVEIGGIKYTGAATRTKKDAEISAGRTALLAIQSDT

binding result (GST-HYL1 fusion protein): binds
B2: HR2 (residues 101-171) used in the pull-down (domain or fragment, Arabidopsis, UniProt O04492 101-171, looked up)
chain: LCKNLLQEYAQKMNYAIPLYQCQKVETLGRVTQFTCTVEIGGIKYTGAATRTKKDAEISAGRTALLAIQSD

More lines, now with the values behind:

Molecule: full-length HYL1 (Arabidopsis HYPONASTIC LEAVES1) (from UniProt O04492 1-419) (natural protein)
percent of the monomer peak shifted to the 110 kDa peak [1]: 90% | stoichiometry N [1]: 2 | stoichiometry N [2]: 8 and 10

B3: HYL1 dsRBD2 (HR2; residues 100-172) (domain or fragment, Arabidopsis, UniProt O04492 100-172, looked up)
chain: GLCKNLLQEYAQKMNYAIPLYQCQKVETLGRVTQFTCTVEIGGIKYTGAATRTKKDAEISAGRTALLAIQSDT
binding result (crystal structure): binds
